# Results reported in patent US20220112288A1 (published 2022).
# Molecular target: T1, human CD4 on human PBMCs (human, UniProt P01730 26-458)
# T1 construct: whole, on cells; the CD4-positive gate was set with the control antibodies OKT4 and RPA-T4; also called hCD4
# Assay: FACS, clonal hybridoma supernatant on PBMCs
Binder,% CD4 Stain [%],gMFI of CD4+ [gMFI]
"75110_04F22A (antibody, V domains shown, Tested as clonal hybridoma supernatant of an AlivaMab Mouse Kappa antibody (human variable regions, kappa; detected with anti-mouse Fc)) VH: EVQLVESGGGLVQPGGSLRLSCAASGFTFSSYDIHWVRQATGKGLEWVSTIGTAGDTYYPGSVKGRFTISRENAKNSLYLQMNSLRAGDTAVYYCARGGYYYYGMDVWGQGTTVTVSS VL: EIVLTQSPGTLSLSPGERATLSCRASQSVYSSYLAWYQQKPGQAPRLLIYGASSRATGIPDRFSGSGSGTDFTLTISRLEPEDFAVYYCQQFGTSPFTFGPGTKVDIK",37.7,216000
"75110_04G16A (antibody, V domains shown, Tested as clonal hybridoma supernatant of an AlivaMab Mouse Kappa antibody (human variable regions, kappa; detected with anti-mouse Fc)) VH: QVQLQESGPGLVKPSQTLSLTCTVSGDSISSGYYYWSWIRQHPGKGLEWIGYISYSGSTYYNPSLKSRLTISVNTSKNQFSLKLSSLTAADTAVYYCARDRPSNFDAFDIWGQGTMVTVSS VL: EIVLTQSPGTLSLSPGERATLSCRASQSVGSTYLAWYQQKPGQAPRLLIYGAFSRATGIPDRFSGSGSGTDFTLTISRLEPEDFAVYYCQQYGSSPLTFGPGTKVDIK",36.3,240000
"75110_04P06A (antibody, V domains shown, Tested as clonal hybridoma supernatant of an AlivaMab Mouse Kappa antibody (human variable regions, kappa; detected with anti-mouse Fc)) VH: EVQLVESGGGLVQPGGSLRLSCAASGFTFSNYDMHWVRQATGKGLEWVSTIGTAGDTYYPGSVKGRFTISRENAKNSLYLQMNSLRAGDTAVYYCARGGDYYYGMDVWGQGTTVTVSS VL: EIVLTQSPDTLSLSPGERATLSCRASQSLSSVYLAWYQQKPGQAPRLLIYGASSRATGIPDRFSGSGSGTDFTLTINRLEPEDFVVYYCQQYGSSPFTFGPGTKVDIK",36.9,241000
"75110_05F19A (antibody, V domains shown, Tested as clonal hybridoma supernatant of an AlivaMab Mouse Kappa antibody (human variable regions, kappa; detected with anti-mouse Fc)) VH: EVQLVESGGGLVQPGGSLRLSCAASGFTFSNYDVHWVRQPTGKGLEWVSTIGTAGDTYYPGSVKGRFTISRENAKNSLYLQMNSLRAGDTAVYYCARGGYDYYGLDVWGQGTTVTVSS VL: not shown",37.1,155000
"75110_05K11A (antibody, V domains shown, Tested as clonal hybridoma supernatant of an AlivaMab Mouse Kappa antibody (human variable regions, kappa; detected with anti-mouse Fc)) VH: EVQLVESGGGLVQPGGSLRLSCAASGFTFSSYDMHWVRQPTGKGLEWVSTIGTAGDTYYPASVKGRFTISRENAKNSLYLQMNSLRAGDTAVYYCARGGFYYYGMDVWGQGTTVTVSS VL: EIVLTQSPGTLSLSPGERVTLSCRASQSVSNTYLAWYQQKPGQAPRLLIYGASSRATGIPDRFSGSGSGTDFTLTISRLEPEDFVVYYCQQHGSSPFTFGPGTKVDIK",38.1,112000
"75110_04D20A (antibody, V domains shown, Tested as clonal hybridoma supernatant of an AlivaMab Mouse Kappa antibody (human variable regions, kappa; detected with anti-mouse Fc)) VH: QVQLQESGPGLVKPSETLSLTCTVSNGSISDYYWSWIRQPAGKGLEWIGRIYTSGSTNYNPSLKSRITMSVDTSKNQFSLELSSVTAADTAVYYCARELERYYFYGVDVWGQGTTVTVSS VL: not shown",33.2,241000
"75110_05G15A (antibody, V domains shown) VH: QVQLQESGPGLVKPSQTLSLTCTVSGGSISSGGYFWSWIRQHPGKGLEWIGCIYYSGSTYYIPSLKSRVTISVDTSKNQFSLKLRSVTAADTAVYYCARDGYDYWYFDLWGRGTLVTVSS VL: not shown",31.6,326000
"75110_04K10A (antibody, V domains shown, Tested as clonal hybridoma supernatant of an AlivaMab Mouse Kappa antibody (human variable regions, kappa; detected with anti-mouse Fc)) VH: EVQLVESGGGLVQPGGSLRLSCAASGFTFSSYWMSWVRQAPGKGLEWVANINQDGSEKYYVDSVKGRFTISRDNAKNSLYLQLNSLRAEDTAMYYCAREGGQWLSLDYWGQGTLVTVSS VL: DIQMTQSPSSVSASVGDRVTITCRASQGISSWLAWYQQKPGKAPKVLIYGVSSFQSGVPSRFSGSGSGTDFILTISSLQPEDFATYYCQQANSFPWTFGQGTKVEIK",35.6,149000
"75110_05L07A (antibody, V domains shown, Tested as clonal hybridoma supernatant of an AlivaMab Mouse Kappa antibody (human variable regions, kappa; detected with anti-mouse Fc)) VH: EVQLVESGGGLVQPGGSLRLSCAASGFTFSSYWMSWVRQAPGKGLEWVANINQDGSDKYYVDSVKGRFTISRDNVKNSLYLQINSLRAEDTAVYYCAREGGQWLTLDYWGQGTLVTVSS VL: not shown",37.9,156000
"75110_04B08A (antibody, V domains shown, Tested as clonal hybridoma supernatant of an AlivaMab Mouse Kappa antibody (human variable regions, kappa; detected with anti-mouse Fc)) VH: QVQLVESGGGVVQPGRSLRLSCTASGFNFINYGIHWVRQAPGKGLEWVTIIWYDGSKKYYADSVKGRFAISRDNSKNTLYLQMNSLRAEDTAVYYCAREDDWNDGLAYWGQGTLVTVSS VL: AIQMTQSPSSLSASVGDRVTITCRASQDIRNDLGWYQQKPGKAPNLLIYAASNLQSGVPSRFSGSGSGTDFTLTISSLQPEDFATYYCLQDSNYPRTFGQGTKVEIK",40.6,246000
"75110_03L12A (antibody, V domains shown, Tested as clonal hybridoma supernatant of an AlivaMab Mouse Kappa antibody (human variable regions, kappa; detected with anti-mouse Fc)) VH: QVQLQQWGAGLLKPSETLSLTCAVYGGSFSGYYWSWIRQPPGKGLEWIGEINHSGSTNYNPSLKSRVTISVDTSENQFSLTLISVTAADTAVYYCVRLINWFDPWGQGTLVTVSS VL: DIQMTQSPSSVSASVGDRVTITCRASQDISNWLAWYQQKPGKAPKLLIFAASSLQSGVPSRFSGSGSGTDFTLTISSLQPDDFATYYCQQANSFPYTFGQGTNLGIK",36.8,162000
"75110_04P08A (antibody, V domains shown, Tested as clonal hybridoma supernatant of an AlivaMab Mouse Kappa antibody (human variable regions, kappa; detected with anti-mouse Fc)) VH: QVQLQQWGAGLLKPSETLSLTCAVYGGSLSGYYWSWIRQSPGKGLEWIGEINQSGSTNYNPSLKSRVTISVDTSKDQFSLRLTSVTAADTAVYYCTRVLNWFDPWGRGTLVTVSS VL: DIQMTQSPSSVSASVGDRVTLTCRASQDISNWLAWYQQKPGKAPKLLIYAASSLQSGVPSRFSGSGSGTDFTLTISSLQTEDFATYYCQQANSFPYTFGQGTKLEIK",36.4,128000
"75110_06D16A (antibody, V domains shown, Tested as clonal hybridoma supernatant of an AlivaMab Mouse Kappa antibody (human variable regions, kappa; detected with anti-mouse Fc)) VH: QVQLQQWGAGLLKPSETLSLTCAVYGGSFSGYYWSWIRQPPGKGLEWIGEINHSGSTNYNPSLKSRVTISVVTSKNQFSLKLSSVTAADTAVYYCARVLNWFDPWGQGTLVTVSS VL: DIQMTQSPSSVSASVGDRVTITCRASQDIADWLAWYQQKPGKAPKLLIYAASSFQSGVPSRFSGSGSGTDFTLTISSLQPEDFATYFCQQANSFPYTFGQGTKLEIK",39.2,253000
"75110_05B13A (antibody, V domains shown, Tested as clonal hybridoma supernatant of an AlivaMab Mouse Kappa antibody (human variable regions, kappa; detected with anti-mouse Fc)) VH: QVLLEQWGAGLLKPSETLSLTCAVYGGSFSGYYWTWIRQPPGKGLEWIGEINHRGSTNYNPSLKSRVTISIDTSKNQFSLKVKSVTAADTAMYYCTRPDSNWFDPWGQGTLVTVSS VL: DIQMTQSPSSVSASVGDRVTITCRASQDISNWLAWYQQKPGKAPKLLIFAASSLQSGVPSRFSGSGSGTDFTLTISSLQPEDFATYYCQQANSFPLTFGGGTKVEIK",55.8,135000
"75110_05E13A (antibody, V domains shown, Tested as clonal hybridoma supernatant of an AlivaMab Mouse Kappa antibody (human variable regions, kappa; detected with anti-mouse Fc)) VH: EVQLVESGGDLVKPGGSLRLSCAASGFSFSNAWMSWVRQAPGKGLEWVGRVESKTDGGTTDYAAPVKDRFTISRDDSKYTLYLQMNSLKTEDSAVYYCTIGGGFGLELYGFFDYWGQGTLVTVSS VL: DIQMTQSPSTLSASVGDRVTITCRASQSISSWLAWYQQKPGKAPMLLIYKASSLESGVPSRFSGSGSGTEFTLTISSLQPDDFATYYCLQYNSYYTFGQGTKLEIK",38.9,257000
"75110_04H17A (antibody, V domains shown, Tested as clonal hybridoma supernatant of an AlivaMab Mouse Kappa antibody (human variable regions, kappa; detected with anti-mouse Fc)) VH: QVQLQESGPGLVKPSETLSLTCTVSGGSISTYYWSWIRQSAGKGLEWIGRIYTSERPNYNPSLKSRVTMSVDTSKNQFSLKLNSVSAADTAVYYCARELERPYYYGMDVWGQGTTVTVSS VL: DVQMTQSPSSLSASVGGRVTITCQASQDISNYLNWYQQKPGKAPKLLIYYASNLETGVPSRFSGSGSGTDFTFTISSLQPEDFATYYCQQYDNLPLTFGGGTKVEIK",28.8,151000
"75110_05A11A (antibody, V domains shown, Tested as clonal hybridoma supernatant of an AlivaMab Mouse Kappa antibody (human variable regions, kappa; detected with anti-mouse Fc)) VH: EVQLVESGGGLVKPGGSLTLSCAASGFTFSNTWMSWVRQAPGKGLEWVGRIKSKIDGGTTDYAAPVKGRFTISRDDSKNTLYLQMNSLKTEDTAVYYCTTSGTYSSGWGLFDYWGQGTLVTVSS VL: DIQMTQSPSSLSASVGDRVTITCQASQDISNYLNWYQQKPGKAPKLLIYDTSNLEAGVPSRFSGSGSGTHFTLTISSLQPEDIATYYCQQYDNLPFTFGGGTRVEIK",35.9,246000
"75110_06C16A (antibody, V domains shown, Tested as clonal hybridoma supernatant of an AlivaMab Mouse Kappa antibody (human variable regions, kappa; detected with anti-mouse Fc)) VH: QVQLQESGPGLVTPSETLSLSCTVSGGSISDYYWSWIRQPGGKGLEWIGRIYSSGSTNYNPSLKSRVTMSVDTSKNQFSLKLSSVTAADTAVYFCARDREDYYYYGMDVWGQGTTVTVSS VL: DIQMTQSPSSLSASVGDRVTITCQASHDISNYLNWYQQKPGKAPKLLIYAASNLETGVPSRFSGSGSGTDFSFTISSLQPEDIATYYCQQYDHLPLTFGGGTKVEIK",33.1,270000
"75110_04G02A (antibody, V domains shown, Tested as clonal hybridoma supernatant of an AlivaMab Mouse Kappa antibody (human variable regions, kappa; detected with anti-mouse Fc)) VH: not shown VL: DIVMTQSPDSLAVSLGERATINCKSSQSVLYSSNNKNYLAWYQQKPGQPPKLLFYWASARESGVPDRFSGSGSGTDFTLTISSLQAEDVALYYCQQYFGSFPTFGQGTKLEIK",38.5,187000
"75110_05E05A (antibody, V domains shown, Tested as clonal hybridoma supernatant of an AlivaMab Mouse Kappa antibody (human variable regions, kappa; detected with anti-mouse Fc)) VH: QVQLQESGPGLVKPSETLSLTCTVSGGSIGSYYWSWIRQPAGKGLEWIGRIYTSGSTNYNPSLKSRVTMSFDTSKNQFSLKLNSVTAADTAVYYCATDGGVGDSLDYWGQGTLVTVSS VL: DIVMTQTPLSLPVTPGEPASISCRSSQSLLDSDDGNTYLDWYLQKPGQSPQLLIYTLSYRASGVPDRFSGSGSGTDFTLKISRVEAEDVGVYYCMQHIEFPFTFGPGTKVDIK",31.8,64000

# Molecular target: T2, human CD4 on human PBMCs (human, UniProt P01730 26-458)
# T2 construct: whole, on cells; also called hCD4
# Assay: FACS, clonal hybridoma supernatant on PBMCs
Binder,% CD4 Stain [%],gMFI of CD4+ [gMFI]
"75110_08D24A (antibody, V domains shown) VH: QVQLQESGPGLVKPSETLSLTCTVSGGSISGFYWSWIRQPAGKGLEWIGRIYTSENTNYNPSLKSRVTMSVDTSKNQFSLKLSSVTAADTAVYYCARDREGYYYYGMDVWGQGTTVTVSS VL: DIQMTQSPSSLSASVGDRVTITCQASQDISNYLNWYQQKPGKAPKLLIYAASNLETGVPSRFSGSGSGTDFTFTISSLQPEDIATYYCQQYDSLPITFGQGTRLEIK",33.6,332000
"75110_06E14A (antibody, V domains shown) VH: QVQLQESGPGLVKPSETLSLTCTVSGGSISNYFWSWIRQPAGKGLEWIGRIYSSGNTNYNPSLKSRVTMSVDTSKNQFSLKLSSVTAADTAVYYCARDREDYYYYGMDVWGQGTTVTVSS VL: DIQMTQSPSSLSASVGDRVTITCQASQDISNYLNWYQQKPGKAPKLLIYGASILETGVPSRFTGSGSGTDFTFTISSLQPEDIATYYCQQYDSLPITFGQGTRLEIK",31.7,225000
